Measured values from a protein production outcome set (Wang et al. 2014).

Assay: label from the status in PepcDB records

| Sequence | protein production |
| --- | --- |
| MGYQLSATLKGHDQDVRDVVAVDDSKVASVSRDGTVRLWSKDDQWLGTVVYTGQGFLNSVCYDSEKELLLFGGKDTMINGVPLFATSGEDPLYTLIGHQGNVCSLSFQDGVVISGSWDKTAKVWKEGSLVYNLQAHNASVWDAKVVSFSENKFLTASADKTIKLWQNDKVIKTFSGIHNDVVRHLAVVDDGHFISCSNDGLIKLVDMHTGDVLRTYEGHESFVYCIKLLPNGDIVSCGEDRTVRIWSKENGSLKQVITLPAISIWSVDCMSNGDIIVGSSDNLVRIFSQEKSRWASEDEINELSTQVEKSTISSKTIEFDESKLSPYEILQSPGRKEGQIVVVKSPQGTIEAHQFSNSSWKKVGDVVGAGATGNDKKIEFEGKTYDYVFDVDIEDGKPPLKLPINVSDNPYTAADNFLARYELPMSYRDQVVQFILKNTNGISLDQPNDNASSSAVSPSKTSVMKVLPVKQYLIMENYNPDTIFNGIVKINSNEKTFDDEILAQIGGALHDIDESWELLLSFANTIRSNWEIKTPAYDIVRLIVKKLPYSSDIKDYIEEGLGNKNITLTMLTVRILVNCFNNENWGVKLLESNQVYKSIFETIDTEFSQASAKQSQNLAIAVSTLIFNYSALVTKGNSDLELLPIVADAINTKYGPLEEYQECEEAAYRLTVAYGNLATVEPTLRQFANSVTWLANIKRSYGNVPRFKDIFDDLS | failed |
| MTLTLGEFIKILEATGYPVAYSHFTATPGNPVPAPPYICFLVDGSANLMADNKVYHKINDVNIELYTTKKDLVAEAKLEQVLDDHEIPYGSYGTFIESENMYQKFYETRLI | failed |
| MVHQSEMENYNIGQASIEEVSDPAYKGAKIVVIGVGGGGSNMIKHLVEYGVHQDVTPIATNTDGQHLKNNPAPVKILLGKESTGGLGAGGIPDIGRKAAEESANEIKEAIKDAKLVIISTGLGGGTGTGATPTIVKIAKEVGALTIAIVTKPFKYEGNQKRKRAEEGLKELEQSSDSILVIPNDKILLTMKKNASTTECYREVDDVLVRAVSGISTIITKPGNINVDFADLKSALGFKGFALMGIGEATGEESAKLAVQNAIQSPLLDDASIEGAKSIIVFFEHHPDYPMMAYSQACDFIQDQAHQDVDVKFGQHTSDNIPIDHVRVTIIATGAERNSGGASLESIATPSQPVVKQTRKVGNGEYLKIPTEEELSIPTTMRIQQD | failed |
| MNNIIVGMGEALWDVLPEGKKIGGAPANFAYHVSQFGFDSRVVSAVGNDELGDEIMEVFKEKQLKNQIERVDYPTGTVQVTLDDEGVPCYEIKEGVAWDNIPFTDELKRLALNTRAVCFGSLAQRNEVSRATINRFLDTMPDIDGQLKIFDINLRQDFYTKEVLRESFKRCNILKINDEELVTISRMFGYPGIDLQDKCWILLAKYNLKMLILTCGINGSYVFTPGVVSFQETPKVPVADTVGAGDSFTAAFCASILNGKSVPEAHKLAVEVSAYVCTQSGAMPELPVILKDRLL | not failed |
| MATPSGIVRFPGAGCVVEFMQGNRPQIAWVMEEQGGRLRLFLPNRRETKLAAARLLPWAGPRYDGERSRDDMVALLEEHRQRRDTREADIQPLELWEMVQGEVEQASVEWFAELLGETPGVDEVAAMGRALLGCKTHFKFHPPDFEVYDAAKVEARMVEMEAARVREALVEAGQAFIKVLWDVHCRRRTMPLPSSSEMPPAEVAERLATLLRTRMADPDDHDSDSVWKQVTKGLPDDAHMPLHLAAAWGIVPVHHNFWMDRAGYAPGDEWAIDHVDEIDALMKRVEALREPLVDGTFISIDSSTTRDIDDAFDISPSPEGGWILRLVLASPVTGWDFDGPLDRAVLRRATSIYLPERSHHMMPETLGTDAYSLLAGQDRPALLVTFDIAPDGSLRSTTPATGWVRLAANLTYTECEACLTGEGDAGRAAPHADRLALADALARVRQQLRVAAGAVIIERDDPKVTLEGEGCAVKVHVAPPDETPRAQLLVSEMMILANAAIASWGAERGITLLHRTQDVGIPREYAGVWNQPHDIARVVKALAPAHLEPVAKPHAGIAVPAYSPVTSPLRRYPDLVNEAQVIHYLTHGTPRWSREEVEAMLPLLGARLDAAGQVQRFRPRYWKLFYIRQQGDKAWHEAVVTEENDAFVTISLPEVQIFVRGRRSTFGDKVYPGQHFNVRLGKVHPLNNEIQIVDAMEG | failed |
| FQDFEYPDYDDYRAEAFLHQQKRMECYSKAKEAYRIGKKNVATFYAQQGTLHEQKMKEANHLAAIEIFEKVNASLLPQNVLDLHGLHVDEALEHLMRVLEKKTEEFKQNGGKPYLSVITGRGNHSQGGVARIKPAVIKYLISHSFRFSEIKPGCLKVMLK | failed |
| MLAVIEKQGNEYVVQFERYFSYSIEEVWSVLTENSKLKKWMSNLQIESLKTGGIIKFDMMDGSFINIDILECQVNAVLEFTWDKDCVRFEIHKEENDTLLLLKEYIHELTDHTPKDIAGWHICLDLFSSVLEGKEKEFSKDEWKQWFEIYKDKVLELRA | failed |
| MRHFRVFLRKPKRITSAAQPLETGSSGLHFSAVNPRQAPASFFPSLRRFTVRLTAARQDQLVSYFFTCFKGVSMSQSVMKKSVLRILPGLLCLALPLSSCSSSKSPKATMTATPVELRYREATEKIAKRKYNDAIVILESLMFSTRATALEDDVLKALADSYYKKKEYILAADTYRRLLQQTPDSPYARDAQFMLAKSYEKLSPFHELDQEYTVKAINEFETYLDQYPSDDSAQAANDLELYKNLMKVNPDNASYREKYEAAKEELASGSPARYSQKAISELRERLAHNRFSIARQYFKLKKYRAAEIFYDVVINQYPDTKWLESAWIGKIDSEIKQNNWFEARQSIETFQQLYPDKAKLIEPAAKRVTAHYSNKRDPKSKE | failed |
| ETSDQRKAEEHIEKEAKYLASLLDAGNLNNQANEKIIKDAGGALDVSASVIDTDGKVLYGSNGRSADSQKVQALVSGHEGILSTTDNKLYYGLSLRSEGEKTGYVLLSASEKSDGLKGE | not failed |
| MDVKTAAALHRLRLISLPEAISFPILLVCSVLKRTTEFDAVFPMGLIHGLLFTFYVIFWADAWNRAKWSKKKAAGYFLLAIPPFGGLFAERKLKREAEDAVIASRARREGTVNA | failed |
| MIITIARQCGCMGDQIGKALAEKYFIPFYDKDAVCRLAKEKGLYEKYPYFYGEMPLDMLLYADTMAGDDTTDNGKTPRKAMADIIGNENCVVVGRCGNNAFRHREDVISVFLTGNKEKRVELIEKKHNVSPKKAAKIVEDTDLRRRSYHNYYTGEEWGNAEYYDICIDVSKVGEDGALRLIEAYINETGVL | failed |
| MTKKKVYIVSHSHWDREWYLPYEEHHMRLIELVDNVLDLIENDPEFNSFHLDGQTIILDDYLQVRPEKKEAVKKAVQAGKLKIGPFYILQDDFLISSESNVRNMLIGHLESQKWGAPVQLGYFPDTFGNMGQTPQMMQLANLPAAAFGRGVKPIGFDNQVLESDYSSQYSEMWWEGPDQTKIFGLLFANWYSNGNEIPSEKEAAIAFWKQKLADVERYASTNHLLMMNGVDHQPVQRDITKAIALANELFPEYEFIHSNFDDYLKAVQEELPEDLGTVTGELTSQETDGWYTLANTSSARVYLKQWNTKVQRQLENIAEPLAAMAYEVTGDYPHDQFDYAWKTLLQNHPHDSICGCSVDEVHRGMMTRFENANDVGHFLADEATRQLTEAIDTSVFPEKAHPFVLFNTSGYQKTEVVTVEVEIERLPFYTGKPEDLYHELKQKATPDYQVIDPTGKAVASRIVKEDVRFGYDLPKDAFRQPYMAKYLTVELSVKEMAPFSWDSFALIQGETKAFEGSLLAQPATNEMENEFIQVKIENNGSLTIADKKTGETFSKLLTFEDTGDIGNEYIFFKPTEDQGITTENVTAEITNKENSPVKASYQIKQTVMLPVAADERLEEEQKAVREFRERLAQRSTTLRPFEITTMVTMIKESNQLFFETTINNQIKDHRLRVLFPTGMVTETHEADSIYEVVTRPNQVSDTWENPTNPQHQQAFVNVHDQNKGVTIFNEGLNEYEVLADGTIAVTLIRCVGELGDWGYFATPEAQCQGEYTFKYGLSLHGKPEERFATYQQAYSAQIPFTAATTARHEGKLAPNHVYLTTAEGPIGWTAVKRQEQTNHLVVRGFNLTAQNIPCELHKETQPATCLTNVLEEPLTPAIEVDAPLRPFEIRTWRFEK | not failed |
| MSQAISLNQSTWASKLKAMGPGILMATAAVGGSHIVSSTQAGGSYGWSLLLLVILANVFKYPFFRFGAEYTADTGKTLVEGYAEKGKLYLWIFFILNVFSAMVNTAGVAILCSAIIASAFPMIGLSITQWSLILVAIIWAMLLFGGYKLLDGMVKWIMSALTIATVLAVIIAAVKHPEYSSDFVEKTPWQMAALPFIVSLLGWMPAPIEISAINSLWSAEKRKTVNFNTEDALFDFNTGYIGTAILAVFFVALGALIQYPTGQAVEAASAKYISQFVGMYASVLGEWSRYLITFIAFLCIFGTVITVIDGYSRVNQESLRLLISQKEDNRKSLNIWMTITAIIGIVIIKFFAGQVSTMLRFAMIGSFLTTPFFALLNYALVTRENKNLPSWLKHLAIAGLIFLFGFAIFFIYALAIGKAG | failed |
| EMFYFEPVNIKKYLGSIGSELSDEVITIEQFFNLNSEYITIIDARSPREFSEKTISNAVNIPLFLTEEYETIGKLYKHEGKEVAIAKAGIIIQDGIKRIVSESLKLDPNKNLVVFCARGGMRSQSIATILKLLGFKVKRLVGGFKSYNISKT | failed |
| MIDTIIISLIAFSILVSLWRGFISEVLSLSGWIAAFFVASTFYPYLSSYLNEIDSVYLQNSEYLRNGIAAAILFIITLILCGIVNALLSKIINTTGLSATDRVLGIAFGALRGILIVAAILFFIDTFTTSNQTELWQESQLIPHFDFIVKWFFEQLQANSSFLNSTTTTK | failed |
| MKLAMIGFGQAGGKIVDKFLEYDKETGSGIVRSAVAVNTAKADLLGLEHIPEENRVLIGQARVKGHGVGADNELGAEIAEEDIDEVQGAIDNIPVHEVDAFLIVAGLGGGTGSGGSPVVAKHLKRIYTEPVYGLGVLPGSDEGGIYTLNAARSFQTFVREVDNLMVFDNDAWRQTGESVEGGYDHINEEIVRRFGVLFGAGEIEAGDNVAESVVDSSEIINTLDGGGVSTVGYASEDVEVSSGGGGLLSRFKGDDSSDDSMDTANTTNRITSLVRKAALGRLTLPCEIEGAERALLVMAGPPEHLNRKGIERGRKWLEEQTGSMEVRGGDYPTNAPKVAASILLAGVHNVPRIKELQQVAIEAQDNIDDIRNQSEDNLEDLVEDDEDELDPLF | failed |
| MRGTTDEEDGVMNFSDVLMMSDDVLSSGEVEEDSFGFRFTGNDAPQMLCFGGGNQNDTDLLFSQPSFSPASPLSSRNNACVVNDQSFRSNKKTGSADGHDRVCDPKPGKRCKRDQKKSSLGNAKDDEDTGEVNPTMKVKELRSNGLCLVPLAWTVHVANTNGADLWSSAILSPLTSHTNSEPVEIVEVKSHKDK | failed |
| EERRVAYPVLRELTERTGETSALMVWNGNESMCVEQIPSRHQVKHLAPLGARYNEALSSSVQVFLASENEDRVRQLLRSGSITLTGVDEDAVEAYLLRLKESMERGWAVNFGETSIEEVGVASPVYDHRGNMVASVLIPAPKFRVSQDTLNSLGEACAAAAAKVTTRLGGRAPH | not failed |
| MKKTLILGATPETNRYAYLAAERLKSHGHEFIPVGRKKGEVLGKTIINERPVIEGVDTVTLYINPQNQLSEYNYILSLKPKRVIFNPGTENEELEEILSENGIEPVIGCTLVMLSAGTF | not failed |
| MGHHHHHHSHMTKREYDQCRIQVRLPDGTSLTQTFRAREQLAAVRLYVELHRGEELGGGQDPVQLLSGFPRRAFSEADMERPLQELGLVPSAVLIVAKKCPS | failed |
| MAQHHGHLGAVYDAAGPQEVAALYDRWAETYESEMARAGYRHPAIGVALLARHLPRGARPLLDAGAGTGLLGEWLEIVGYPEVEALDISAGMLEVARAKGIYARCHNLPLGAALPFRDGAFAGIISTGVFTTGHVGAEALPELLRICRPGGVIVLTVKESLWQGGFAVSLEAAVASGLEHHHHHH | failed |
